Consider 39 variants from the supplement of paper PMC6755084.

The chains are these.
B1: minF1; the commonest letter at each place (parent)
chain: GAGACCGCAACTGAAAAGTTGTTATCAGAAATGGATGGGTTGAATTTCTGCACGTAGAAGCAAAAGGC

Variants of B1 are the subject of the series. Kind of series: fraction ligated after 30 min (ligated reads / total reads); higher = more ligase activity. Conditions: with F1*subA RNA substrate (template-directed ligation), 42 °C. A digest of the protocol:
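Ligated and unligated RNAs from a pool of minimized ligase ribozyme variants were separated on gels, reverse transcribed with barcoded primers and sequenced on a MiSeq. Core bases needed quality ≥30 to pass the filter. Each variant's fraction ligated was then taken as ligated reads over total reads.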
As to GAGACCGCAACTGAAAAGTTGTTATCAGAAATGGACTGGTTGAATTTCTGCACGTAGAAGCAAAAGGC, the fraction ligated came out at 0.00876.
GAGACCGCAACTGAAAAGTTGTTATCAGAAATGGACAGGTTGAATTTCTGCACGTAGAAGCAAAAGGC: the fraction ligated is 0.00566.
The same measure for GAGACCGCAACTGAAAAGTTGTTATCAGAAATGGACCGGTTGAATTTCTGCACGTAGAAGCAAAAGGC: 0.0038.
Take GAGACCGCAACTGAAAAGTTGTTATCAGAAATGGAAGGGTTGGATTTCTGCACGTAGAAGCAAAAGGC: the fraction ligated stood at 0.00353.
The same measure for GAGACCGCAACTGAAAAGTTGTTATCAGAAATGGAAGGGTTGTATTTCTGCACGTAGAAGCAAAAGGC: 0.00522; for GAGACCGCAACTGAAAAGTTGTTATCAGAAATGGAAGGGTTGCATTTCTGCACGTAGAAGCAAAAGGC: 0.0049; for GAGACCGCAACTGAAAAGTTGTTATCAGAAATGGATCGGTTGACTTTCTGCACGTAGAAGCAAAAGGC: 0.00161.
Take GAGACCGCAACTGAAAAGTTGTTATCAGAAATGGAGGGGTTAAATTTCTGCACGTAGAAGCAAAAGGC: the fraction ligated turned out to be 0.00463.
The same measure for GAGACCGCAACTGAAAAGTTGTTATCAGAAATGGAGGGGTTTAATTTCTGCACGTAGAAGCAAAAGGC: 0.000662; for GAGACCGCAACTGAAAAGTTGTTATCAGAAATGGAGGGGTTCAATTTCTGCACGTAGAAGCAAAAGGC: 0.00216; for GAGACCGCAACTGAAAAGTTGTTATCAGAAATGGAGGGGTTGCATTTCTGCACGTAGAAGCAAAAGGC: 0.00461.
For GAGACCGCAACTGAAAAGTTGTTATCAGAAATGGAGGGGTTGGATTTCTGCACGTAGAAGCAAAAGGC, the fraction ligated is 0.00457.
Then GAGACCGCAACTGAAAAGTTGTTATCAGAAATGGAGGGGTTGTATTTCTGCACGTAGAAGCAAAAGGC, with 0.00809.
Then GAGACCGCAACTGAAAAGTTGTTATCAGAAATGGGTTGGTTGAATTTCTGCACGTAGAAGCAAAAGGC, with 0.00458.
With GAGACCGCAACTGAAAAGTTGTTATCAGAAATGGGTCGGTTGAATTTCTGCACGTAGAAGCAAAAGGC, the fraction ligated came to 0.0017.
The same measure for GAGACCGCAACTGAAAAGTTGTTATCAGAAATGGGTAGGTTGAATTTCTGCACGTAGAAGCAAAAGGC: 0.00295; for GAGACCGCAACTGAAAAGTTGTTATCAGAAATGGTTGGGTTTAATTTCTGCACGTAGAAGCAAAAGGC: 0.00285; for GAGACCGCAACTGAAAAGTTGTTATCAGAAATGGTTGGGTTAAATTTCTGCACGTAGAAGCAAAAGGC: 0.00343.
The same measure for GAGACCGCAACTGAAAAGTTGTTATCAGAAATGGTTGGGTTCAATTTCTGCACGTAGAAGCAAAAGGC: 0.00256; for GAGACCGCAACTGAAAAGTTGTTATCAGAAATGGTAGGGTTGAATTTCTGCACGTAGAAGCAAAAGGC: 0.0108; for GAGACCGCAACTGAAAAGTTGTTATCAGAAATGGTGGGGTTGAATTTCTGCACGTAGAAGCAAAAGGC: 0.00748.
The same measure for GAGACCGCAACTGAAAAGTTGTTATCAGAAATGGTCGGGTTGAATTTCTGCACGTAGAAGCAAAAGGC: 0.00257; for GAGACCGCAACTGAAAAGTTGTTATCAGAAATGGTTCGGTTGAATTTCTGCACGTAGAAGCAAAAGGC: 0.00461.
As to GAGACCGCAACTGAAAAGTTGTTATCAGAAATGGTTAGGTTGAATTTCTGCACGTAGAAGCAAAAGGC, the fraction ligated worked out at 0.00299.
The same measure for GAGACCGCAACTGAAAAGTTGTTATCAGAAATGGTTTGGTTGAATTTCTGCACGTAGAAGCAAAAGGC: 0.00238; for GAGACCGCAACTGAAAAGTTGTTATCAGAAATGGACGGGTTGACTTTCTGCACGTAGAAGCAAAAGGC: 0.00404.
In the case of GAGACCGCAACTGAAAAGTTGTTATCAGAAATGGACGGGTTGATTTTCTGCACGTAGAAGCAAAAGGC, the fraction ligated was 0.0101.
Then GAGACCGCAACTGAAAAGTTGTTATCAGAAATGGACGGGTTGAGTTTCTGCACGTAGAAGCAAAAGGC, with 0.00651; and GAGACCGCAACTGAAAAGTTGTTATCAGAAATGGATCGGTTGGATTTCTGCACGTAGAAGCAAAAGGC, with 0.00302; and GAGACCGCAACTGAAAAGTTGTTATCAGAAATGGATCGGTTGTATTTCTGCACGTAGAAGCAAAAGGC, with 0.00493.
As for GAGACCGCAACTGAAAAGTTGTTATCAGAAATGGATCGGTTGCATTTCTGCACGTAGAAGCAAAAGGC, the fraction ligated stood at 0.00193.
Then GAGACCGCAACTGAAAAGTTGTTATCAGAAATGGTTGGGTTGAGTTTCTGCACGTAGAAGCAAAAGGC, with 0.0054; and GAGACCGCAACTGAAAAGTTGTTATCAGAAATGGTTGGGTTGACTTTCTGCACGTAGAAGCAAAAGGC, with 0.00563.
Then GAGACCGCAACTGAAAAGTTGTTATCAGAAATGGTTGGGTTGATTTTCTGCACGTAGAAGCAAAAGGC, with 0.00912; and GAGACCGCAACTGAAAAGTTGTTATCAGAAATGGGTGGGTTAAATTTCTGCACGTAGAAGCAAAAGGC, with 0.0121.
Regarding GAGACCGCAACTGAAAAGTTGTTATCAGAAATGGGTGGGTTCAATTTCTGCACGTAGAAGCAAAAGGC, the fraction ligated is 0.00281.
Then GAGACCGCAACTGAAAAGTTGTTATCAGAAATGGGTGGGTTTAATTTCTGCACGTAGAAGCAAAAGGC, with 0.00567; and GAGACCGCAACTGAAAAGTTGTTATCAGAAATGGAGGGGTTGAATTTCTGCACGTAGAAGCAAAAGGC, with 0.0461; and GAGACCGCAACTGAAAAGTTGTTATCAGAAATGGACGGGTTGAATTTCTGCACGTAGAAGCAAAAGGC, with 0.0157.
